Tests used:
c-Src SH2 = experiment: SH2 binding enrichment of the phosphorylated peptide, bacterial display (enrichment ratio); higher = better substrate or ligand; peptides without Tyr show the background
SHP2-C SH2 = experiment: as above
Grb2 SH2 = Grb2 SH2 (UniProt P62993); experiment: as above
Hck = Hck (UniProt P08631); experiment: phosphorylation enrichment, bacterial display (enrichment ratio); higher = better substrate or ligand; peptides without Tyr show the background
EPHB1 = EPHB1 (UniProt P54762); experiment: as above
EPHB1, sequence (P54762 whole entry, looked up): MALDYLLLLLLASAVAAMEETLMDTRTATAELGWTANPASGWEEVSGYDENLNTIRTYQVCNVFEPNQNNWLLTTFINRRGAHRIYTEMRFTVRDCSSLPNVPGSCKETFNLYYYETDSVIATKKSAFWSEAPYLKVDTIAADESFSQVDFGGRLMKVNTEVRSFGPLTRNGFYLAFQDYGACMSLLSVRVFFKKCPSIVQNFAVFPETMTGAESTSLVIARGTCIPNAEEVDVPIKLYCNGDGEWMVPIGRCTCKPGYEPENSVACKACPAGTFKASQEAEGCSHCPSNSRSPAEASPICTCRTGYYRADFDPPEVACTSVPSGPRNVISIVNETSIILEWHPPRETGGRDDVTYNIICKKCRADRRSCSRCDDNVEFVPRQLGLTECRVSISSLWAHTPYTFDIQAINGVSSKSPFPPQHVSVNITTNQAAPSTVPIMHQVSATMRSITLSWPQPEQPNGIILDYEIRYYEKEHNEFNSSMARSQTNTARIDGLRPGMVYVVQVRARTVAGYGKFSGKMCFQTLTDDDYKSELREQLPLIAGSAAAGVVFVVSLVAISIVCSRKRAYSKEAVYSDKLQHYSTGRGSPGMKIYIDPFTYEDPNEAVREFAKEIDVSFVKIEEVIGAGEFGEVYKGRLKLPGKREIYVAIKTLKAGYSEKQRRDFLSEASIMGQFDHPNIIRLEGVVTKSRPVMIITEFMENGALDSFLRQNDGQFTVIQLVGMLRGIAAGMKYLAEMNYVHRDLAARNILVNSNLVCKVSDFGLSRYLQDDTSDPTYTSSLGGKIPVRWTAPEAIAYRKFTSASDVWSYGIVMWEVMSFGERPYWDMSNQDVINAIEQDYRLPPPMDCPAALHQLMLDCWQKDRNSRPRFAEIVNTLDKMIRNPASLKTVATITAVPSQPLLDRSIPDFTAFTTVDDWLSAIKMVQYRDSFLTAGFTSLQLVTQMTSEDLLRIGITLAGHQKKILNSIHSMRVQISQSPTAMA

c-Src = experiment: as above
Fes = Fes (UniProt P07332); experiment: as above
Fes, sequence (P07332 whole entry, looked up): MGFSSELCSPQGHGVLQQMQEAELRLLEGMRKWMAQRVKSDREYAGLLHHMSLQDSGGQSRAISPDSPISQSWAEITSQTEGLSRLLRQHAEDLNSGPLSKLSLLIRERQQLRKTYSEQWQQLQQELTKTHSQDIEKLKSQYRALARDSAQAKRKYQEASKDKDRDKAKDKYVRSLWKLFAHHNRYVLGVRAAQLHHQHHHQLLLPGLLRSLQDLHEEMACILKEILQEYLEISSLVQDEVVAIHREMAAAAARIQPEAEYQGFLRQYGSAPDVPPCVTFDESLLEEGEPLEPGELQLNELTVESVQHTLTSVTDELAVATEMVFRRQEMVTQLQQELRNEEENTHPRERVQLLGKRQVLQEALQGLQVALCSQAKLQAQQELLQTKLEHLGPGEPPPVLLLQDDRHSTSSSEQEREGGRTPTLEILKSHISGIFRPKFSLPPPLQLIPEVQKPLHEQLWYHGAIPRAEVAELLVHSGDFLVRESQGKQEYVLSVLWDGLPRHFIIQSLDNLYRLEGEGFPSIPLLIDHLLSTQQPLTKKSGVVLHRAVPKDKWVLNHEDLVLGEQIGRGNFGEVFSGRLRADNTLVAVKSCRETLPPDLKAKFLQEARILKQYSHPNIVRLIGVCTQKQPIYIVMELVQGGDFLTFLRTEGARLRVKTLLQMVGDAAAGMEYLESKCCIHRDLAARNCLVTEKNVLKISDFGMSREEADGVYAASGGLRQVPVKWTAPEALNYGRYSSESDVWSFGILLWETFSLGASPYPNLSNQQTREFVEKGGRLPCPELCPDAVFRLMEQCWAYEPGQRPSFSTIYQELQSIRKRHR

Fer (mouse) = experiment: as above
FGFR3 = FGFR3 (UniProt P22607); experiment: as above
FGFR3, sequence (P22607 whole entry, looked up): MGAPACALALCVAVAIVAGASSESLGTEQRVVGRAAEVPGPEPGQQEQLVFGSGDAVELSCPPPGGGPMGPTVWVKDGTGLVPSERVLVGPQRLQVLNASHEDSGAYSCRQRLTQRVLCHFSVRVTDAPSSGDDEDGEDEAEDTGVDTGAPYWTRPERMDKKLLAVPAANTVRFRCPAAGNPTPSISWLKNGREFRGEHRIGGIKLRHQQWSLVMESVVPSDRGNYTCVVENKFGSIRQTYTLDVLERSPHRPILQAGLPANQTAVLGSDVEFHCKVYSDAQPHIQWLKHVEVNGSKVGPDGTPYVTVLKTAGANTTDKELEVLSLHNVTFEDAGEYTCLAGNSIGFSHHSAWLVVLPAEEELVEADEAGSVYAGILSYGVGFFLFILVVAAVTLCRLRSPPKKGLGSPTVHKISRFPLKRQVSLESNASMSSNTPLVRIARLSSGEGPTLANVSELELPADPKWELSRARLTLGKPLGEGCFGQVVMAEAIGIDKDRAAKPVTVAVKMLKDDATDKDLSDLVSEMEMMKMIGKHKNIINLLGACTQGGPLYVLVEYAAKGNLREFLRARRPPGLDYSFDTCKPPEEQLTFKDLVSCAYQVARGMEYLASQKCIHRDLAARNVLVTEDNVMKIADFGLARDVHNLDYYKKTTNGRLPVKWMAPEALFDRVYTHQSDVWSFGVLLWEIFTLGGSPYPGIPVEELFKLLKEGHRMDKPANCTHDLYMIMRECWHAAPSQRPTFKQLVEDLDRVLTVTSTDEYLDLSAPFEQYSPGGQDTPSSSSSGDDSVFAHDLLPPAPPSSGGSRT

MERTK = MERTK (UniProt Q12866); experiment: as above
AncSZ = experiment: as above
Jak2 = Jak2 (UniProt O60674); experiment: as above
Jak2, sequence (O60674 whole entry, looked up): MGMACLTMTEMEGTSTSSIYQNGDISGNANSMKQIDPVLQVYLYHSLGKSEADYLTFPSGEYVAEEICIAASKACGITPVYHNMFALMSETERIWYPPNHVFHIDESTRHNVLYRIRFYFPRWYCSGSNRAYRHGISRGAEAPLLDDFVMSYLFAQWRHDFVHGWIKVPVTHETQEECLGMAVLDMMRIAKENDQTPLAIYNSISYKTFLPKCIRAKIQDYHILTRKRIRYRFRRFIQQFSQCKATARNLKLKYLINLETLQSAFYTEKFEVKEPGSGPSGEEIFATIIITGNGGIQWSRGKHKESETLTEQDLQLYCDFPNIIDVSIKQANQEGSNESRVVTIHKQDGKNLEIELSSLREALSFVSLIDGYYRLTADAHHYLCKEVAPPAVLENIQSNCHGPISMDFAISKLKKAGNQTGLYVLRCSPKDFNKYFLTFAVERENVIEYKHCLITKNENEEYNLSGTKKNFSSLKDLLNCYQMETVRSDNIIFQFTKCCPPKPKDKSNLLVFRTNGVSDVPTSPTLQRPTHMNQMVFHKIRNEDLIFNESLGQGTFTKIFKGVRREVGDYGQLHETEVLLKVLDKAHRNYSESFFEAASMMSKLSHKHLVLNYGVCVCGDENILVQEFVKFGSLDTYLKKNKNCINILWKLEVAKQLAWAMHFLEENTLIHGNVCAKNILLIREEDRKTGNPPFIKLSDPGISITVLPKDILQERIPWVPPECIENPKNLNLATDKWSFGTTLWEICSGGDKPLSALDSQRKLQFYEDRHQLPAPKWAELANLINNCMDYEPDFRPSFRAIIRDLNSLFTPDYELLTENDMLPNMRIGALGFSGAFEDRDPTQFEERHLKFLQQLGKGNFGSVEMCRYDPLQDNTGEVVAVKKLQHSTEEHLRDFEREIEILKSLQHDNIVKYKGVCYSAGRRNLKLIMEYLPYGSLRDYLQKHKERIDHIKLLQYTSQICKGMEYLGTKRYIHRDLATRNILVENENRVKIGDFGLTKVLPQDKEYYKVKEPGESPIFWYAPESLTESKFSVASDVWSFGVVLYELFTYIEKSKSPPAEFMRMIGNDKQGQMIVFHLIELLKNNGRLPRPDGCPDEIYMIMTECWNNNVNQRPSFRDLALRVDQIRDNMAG

c-Abl (mouse) = experiment: as above
Fyn = Fyn (UniProt P06241); experiment: as above
EPHB2 = EPHB2 (UniProt P29323); experiment: as above
FGFR1 = FGFR1 (UniProt P11362); experiment: as above
FGFR1, sequence (P11362 whole entry, looked up, the tested form may be a part): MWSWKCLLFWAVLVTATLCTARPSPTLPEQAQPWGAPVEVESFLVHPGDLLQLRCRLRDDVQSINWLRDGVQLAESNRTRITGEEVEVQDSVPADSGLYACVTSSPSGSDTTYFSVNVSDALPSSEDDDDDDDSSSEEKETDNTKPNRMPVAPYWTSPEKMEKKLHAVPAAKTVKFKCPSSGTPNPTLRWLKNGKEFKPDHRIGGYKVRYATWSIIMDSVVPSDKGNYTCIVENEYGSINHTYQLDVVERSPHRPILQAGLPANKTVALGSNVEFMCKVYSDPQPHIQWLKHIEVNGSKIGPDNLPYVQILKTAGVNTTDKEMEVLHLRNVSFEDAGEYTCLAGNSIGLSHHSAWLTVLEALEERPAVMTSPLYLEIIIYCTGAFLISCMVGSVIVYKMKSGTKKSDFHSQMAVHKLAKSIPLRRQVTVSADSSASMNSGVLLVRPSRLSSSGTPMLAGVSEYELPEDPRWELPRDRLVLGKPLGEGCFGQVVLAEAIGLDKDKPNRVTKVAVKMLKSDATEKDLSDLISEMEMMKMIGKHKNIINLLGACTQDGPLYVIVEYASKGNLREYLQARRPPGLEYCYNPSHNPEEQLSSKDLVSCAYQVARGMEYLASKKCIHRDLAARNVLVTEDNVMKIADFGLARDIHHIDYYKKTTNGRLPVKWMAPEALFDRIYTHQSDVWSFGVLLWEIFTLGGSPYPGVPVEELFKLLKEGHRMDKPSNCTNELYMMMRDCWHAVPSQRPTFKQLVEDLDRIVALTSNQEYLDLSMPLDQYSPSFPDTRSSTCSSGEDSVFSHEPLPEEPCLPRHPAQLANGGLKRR
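Throughout, for SH2 binding enrichment of the phosphorylated peptide, bacterial display: peptide library displayed on the E. coli surface as eCPX fusions, selected cells deep-sequenced, score is each peptide's frequency after selection divided by its frequency in the input.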
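Throughout, for phosphorylation enrichment, bacterial display: 11-residue human phosphosite peptides and single-mutation variants displayed on the E. coli surface, counted by deep sequencing, each peptide's frequency after selection divided by its frequency in the unselected input library; frequency after pTyr selection over input frequency; kinase dosed for 20-30% of maximal phosphorylation in three min.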

Hck, sequence (P08631 whole entry, looked up): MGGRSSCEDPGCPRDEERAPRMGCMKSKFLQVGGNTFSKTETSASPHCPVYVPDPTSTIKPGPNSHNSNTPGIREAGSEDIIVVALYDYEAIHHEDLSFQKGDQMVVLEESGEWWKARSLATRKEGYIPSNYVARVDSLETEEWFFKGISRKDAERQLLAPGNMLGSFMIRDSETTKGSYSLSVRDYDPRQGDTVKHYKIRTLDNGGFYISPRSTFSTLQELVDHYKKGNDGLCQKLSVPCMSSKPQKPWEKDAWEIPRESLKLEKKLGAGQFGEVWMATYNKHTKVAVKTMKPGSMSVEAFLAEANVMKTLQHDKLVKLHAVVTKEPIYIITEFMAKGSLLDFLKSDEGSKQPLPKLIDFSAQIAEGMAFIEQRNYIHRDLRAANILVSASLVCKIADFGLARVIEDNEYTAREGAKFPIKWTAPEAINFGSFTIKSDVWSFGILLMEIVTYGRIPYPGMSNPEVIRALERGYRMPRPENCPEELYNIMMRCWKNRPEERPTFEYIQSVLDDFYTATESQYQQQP

| SH2 binding enrichment (c-Src SH2) | SH2 binding enrichment (SHP2-C SH2) | SH2 binding enrichment (Grb2 SH2) | Sequence | phosphorylation enrichment (Hck) | phosphorylation enrichment (EPHB1) | phosphorylation enrichment (c-Src) | phosphorylation enrichment (Fes) | phosphorylation enrichment (Fer (mouse)) | phosphorylation enrichment (FGFR3) | phosphorylation enrichment (MERTK) | phosphorylation enrichment (AncSZ) | phosphorylation enrichment (Jak2) | phosphorylation enrichment (c-Abl (mouse)) | phosphorylation enrichment (Fyn) | phosphorylation enrichment (EPHB2) | phosphorylation enrichment (FGFR1) |
| --- | --- | --- | --- | --- | --- | --- | --- | --- | --- | --- | --- | --- | --- | --- | --- | --- |
| 0.618 | 0.686 | 0.78 | LNGDRYFKGIV [DCX_Y64_R59L] | 4.24 | 2.3 | 0.626 | 4.84 | 3.94 | 3.96 | 1.37 | 4.62 | 0.942 | 0.703 | 2.87 | 3.35 | 4.77 |
| 0.557 | 0.706 | 0.938 | FSMGCYEIFLG [HMGCL_Y198_S201Y_YF] | 3.21 | 2.01 | 6.25 | 1.8 | 3.74 | 1.35 | 4.33 | 2.87 | 1.51 | 1.28 | 5.89 | 2.07 | 0.95 |
| 0.938 | 0.88 | 0.867 | IGVGSYSVCKR [RPS6KA3_Y433] | 0.383 | 0.369 | 0.362 | 0.878 | 0.385 | 0.496 | 0.445 | 0.716 | 0.618 | 0.53 | 0.317 | 0.412 | 0.354 |
| 0.404 | 0.353 | 0.761 | RIVEIYSRRLR [GCH1_Y175_Q180R] | 0.736 | 0.728 | 0.81 | 0.623 | 1.15 | 0.549 | 0.773 | 0.691 | 0.619 | 0.692 | 0.922 | 0.654 | 0.292 |
| 0.497 | 0.671 | 0.717 | SNFRAYATEPH [TNNI3_Y29_YF] | 0.441 | 0.399 | 0.486 | 0.664 | 0.366 | 0.462 | 0.378 | 0.647 | 0.526 | 0.64 | 0.473 | 0.463 | 0.53 |
| 0.449 | 0.702 | 0.856 | DWRQEYVLNES [TGM1_Y267] | 0.686 | 0.55 | 1.36 | 1.15 | 0.558 | 0.909 | 0.53 | 1.23 | 0.863 | 0.677 | 0.593 | 0.817 | 0.878 |
| 0.645 | 0.826 | 0.981 | VVIMLYGVDSR [PKD1_Y3143_G3139V] | 0.594 | 0.879 | 0.524 | 1.57 | 0.682 | 0.924 | 0.399 | 1.29 | 1.35 | 1.04 | 0.592 | 0.72 | 0.545 |

| Sequence | SH2 binding enrichment (c-Src SH2) | SH2 binding enrichment (SHP2-C SH2) | SH2 binding enrichment (Grb2 SH2) | phosphorylation enrichment (Hck) | phosphorylation enrichment (EPHB1) | phosphorylation enrichment (c-Src) | phosphorylation enrichment (Fes) | phosphorylation enrichment (Fer (mouse)) | phosphorylation enrichment (FGFR3) | phosphorylation enrichment (MERTK) | phosphorylation enrichment (AncSZ) | phosphorylation enrichment (Jak2) | phosphorylation enrichment (c-Abl (mouse)) | phosphorylation enrichment (Fyn) | phosphorylation enrichment (EPHB2) | phosphorylation enrichment (FGFR1) |
| --- | --- | --- | --- | --- | --- | --- | --- | --- | --- | --- | --- | --- | --- | --- | --- | --- |
| SIKDKHVTALY [KCNH2_Y611_Y611H] | 0.497 | 0.572 | 0.899 | 0.397 | 0.387 | 0.44 | 0.61 | 0.388 | 0.405 | 0.345 | 0.587 | 0.43 | 0.529 | 0.409 | 0.405 | 0.408 |

— the supplement of paper PMC10065799, “High-throughput profiling of sequence recognition by tyrosine kinases and SH2 domains using bacterial peptide display” (eLife, 2023)
